Patent US8357518B2, “Thermostable enzymes for the hydrolysis of mannan-containing polysaccharides” (The Board of Trustees of the University of Illinois, priority 2010, dated 2013)

Key:
Experiment in all cases: Catalytic efficiency with oligosaccharides, HPAEC (Man5A-TM2)
Assay type in all cases: biochemical, Caldanaerobius polysaccharolyticus
Conditions in all cases: other: Man5A-TM2 0.3 μM, oligosaccharide 30 μM, citrate buffer 50 mM, pH 5.5, 5 min, triplicate
[1] = substrate: OC[C@H]1O[C@@H](O[C@H]2[C@H](O)[C@@H](O)[C@H](O[C@H]3[C@H](O)[C@@H](O)[C@H](O[C@H]4[C@H](O)[C@@H](O)[C@H](O[C@H]5[C@H](O)[C@@H](O)C(O)O[C@@H]5CO)O[C@@H]4CO)O[C@@H]3CO)O[C@@H]2CO)[C@H](O)[C@@H](O)[C@@H]1O
Protocol: (§1) Cloning, expression, and purification of Man5A-TM1, Man5A-TM2 and Man5B. C. polysaccharolyticus was cultured in TYG medium and DNA was isolated from mid-log cultures and purified using the Qiagen DNeasy Blood and Tissue kit with an integrated RNase treatment step. The genome of C. polysaccharolyticus was partially sequenced by the W. M. Keck Biotechnology Center at the University of Illinois at Urbana-Champaign. A Newbler assembly was generated which is comprised of ½ plate of FLX PE 454 data and ½ plate of 8 kb paired-end GSFLX Titanium data using a Genome Sequencer instrument from 454 Life Sciences (Branford, Conn.). The partial genome sequence was uploaded onto the Rapid Annotation using Subsystem Technology (RAST) server (Aziz et al., BMC Genomics, 9:75, 2008). Auto-annotation of the C. polysaccharolyticus partial genome sequence identified ORF0760 as a gene predicted to encode a bifunctional β-D-mannanase/endoglucanase (Man5B). Man5A was previously identified in a recombinant phage library of C. polysaccharolyticus genomic DNA, which was screened for endoglucanase activity (Cann et al., J Bacteriol, 181:1643, 1999) and the full sequence of this gene was also identified in the partial genome sequence for C. polysaccharolyticus.
(§2) The DNA sequence corresponding to man5B was amplified by the PicoMaxx high fidelity PCR kit using genomic DNA as the template with the primer set Man5B-Forward and Man5B-Reverse (Table 1-1). The primers were engineered to incorporate a 5′-[…] (SEQ ID NO: 54) extension in Man5B-F and a 5′-[…] (SEQ ID NO: 55) extension in Man5B-R, which facilitated subsequent directional cloning. The resultant man5B amplicon was then digested with T4 DNA polymerase exonuclease activity, annealed with a similarly digested pET-46b vector and introduced into E. coli JM109 by electroporation. Man5A-TM1 was amplified using genomic DNA as template with primers Man5A-TM1-F and Man5A-TM1-R (Table 1-1). The primer sets for Man5A-TM1 and Man5A-TM2 were designed to include 5′-NdeI and 3′-XhoI restriction sites for subsequent directional cloning. The resulting amplicons were then cloned into the pGEM-T vector via TA-cloning and subcloned in-frame with the hexahistidine (His6) encoding sequence of a modified pET-28a expression vector via its NdeI-XhoI polylinker site. The truncated protein Man5A-TM2 originally named ManA-SLH-CBD was cloned as described in a previous study (Cann et al., J Bacteriol, 181:1643, 1999). Expression of each of the resulting gene constructs yielded fusion proteins containing an N-terminal polyhistidine tag sequence to facilitate affinity purification via metal chelate chromatography. The resulting plasmid constructs pET46-Man5B, pET28a-Man5A-TM1, and pET-28a-Man5A-TM2 were sequenced to confirm the integrity of the cloned genes (W. M. Keck Center for Comparative and Functional Genomics at the University of Illinois at Urbana-Champaign).
(§3) The plasmid constructs were then introduced into E. coli BL-21 CodonPlus (DE3) RIL competent cells by heat shock, and grown overnight in lysogeny broth (LB) agar medium supplemented with ampicillin (100 μg/mL) and chloramphenicol (50 μg/mL) at 37° C. After 12 h, single colonies were selected and used to inoculate fresh LB (10 mL) supplemented with the antibiotics above at the same concentrations, followed by culturing with aeration for 8 h at 37° C. The pre-cultures were then inoculated into fresh LB (1 L) supplemented with ampicillin and chloramphenicol and the cultures were incubated at 37° C. with vigorous aeration (225 rpm/min). The cultures were grown to an optical density of 0.3 at 600 nm, and the temperature was shifted to 16° C. and gene expression was induced by the addition of 0.1 mM isopropyl β-D-thiogalactopyranoside (IPTG). […]

[2] = substrate: OC[C@H]1O[C@@H](O[C@H]2[C@H](O)[C@H](O)[C@H](O[C@H]3[C@H](O)[C@H](O)[C@H](O[C@H]4[C@H](O)[C@H](O)[C@H](O[C@H]5[C@H](O)[C@H](O)C(O)O[C@@H]5CO)O[C@@H]4CO)O[C@@H]3CO)O[C@@H]2CO)[C@@H](O)[C@@H](O)[C@@H]1O
Protocol: as §1, §2, §3

[3] = substrate: OC[C@H]1O[C@@H](O[C@H]2[C@H](O)[C@H](O)[C@H](O[C@H]3[C@H](O)[C@H](O)[C@H](O[C@H]4[C@H](O)[C@H](O)C(O)O[C@@H]4CO)O[C@@H]3CO)O[C@@H]2CO)[C@@H](O)[C@@H](O)[C@@H]1O
Protocol: as §1, §2, §3

[4] = substrate: OC[C@H]1O[C@@H](O[C@H]2[C@H](O)[C@H](O)[C@H](O[C@H]3[C@H](O)[C@H](O)[C@H](O[C@H]4[C@H](O)[C@H](O)[C@H](O[C@H]5[C@H](O)[C@H](O)[C@H](O[C@H]6[C@H](O)[C@H](O)C(O)O[C@@H]6CO)O[C@@H]5CO)O[C@@H]4CO)O[C@@H]3CO)O[C@@H]2CO)[C@@H](O)[C@@H](O)[C@@H]1O
Protocol: as §1, §2, §3

[5] = substrate: OC[C@H]1O[C@@H](O[C@H]2[C@H](O)[C@@H](O)[C@H](O[C@H]3[C@H](O)[C@@H](O)[C@H](O[C@H]4[C@H](O)[C@@H](O)C(O)O[C@@H]4CO)O[C@@H]3CO)O[C@@H]2CO)[C@H](O)[C@@H](O)[C@@H]1O
Protocol: as §1, §2, §3

[6] = substrate: OC[C@H]1O[C@@H](O[C@H]2[C@H](O)[C@@H](O)[C@H](O[C@H]3[C@H](O)[C@@H](O)[C@H](O[C@H]4[C@H](O)[C@@H](O)[C@H](O[C@H]5[C@H](O)[C@@H](O)[C@H](O[C@H]6[C@H](O)[C@@H](O)C(O)O[C@@H]6CO)O[C@@H]5CO)O[C@@H]4CO)O[C@@H]3CO)O[C@@H]2CO)[C@H](O)[C@@H](O)[C@@H]1O
Protocol: as §1, §2, §3

B1: Caldanaerobius polysaccharolyticus endo-β-mannanase Man5A truncation mutant Man5A-TM2, SEQ ID NO: 29 (Caldanaerobius polysaccharolyticus) (protein)
chain: AGTSGDGRFHVVGNKIVDPDGKDFIIKGVNIQGYRSWEKRSVLQDVHLIADVWKFNTVRLNCFIGQNNWGEGTGANNDIDAIIKAFTAKKVVVEIDLHDTTGYPPLSNPPPAPGQPSLDQAIAWFKELAAKYKDNPYVWFNTMNEPGSSTAPLDPQWKVANEEIIKAIRSTGADNIIVVDGWSYANEGIEQNTPTVDEKRSAVLTYGQDLLNADSAKNTIFAFHNYNEGDIQKKVEDYIDRANAKGLYVFMEEYGKDYSDAAKEGVKSGLQAVMNKGAGRIYWNWDGYDLYDLTSGTGRGSGWEINKTDGSKPTNLSWVGDKIWDDNHGITPTFDDQNPKVDLALERLIANNNGFKAGDKVQFTTFLRNSGDLPIGKDSKVVVKFYVDGVQLGDPVEISGGIAVGQRIPVTSPELTVSKTDFTVKAVIDSSSTYADGAEDAVIENNWIEAAFNSTAPSSGYELVVTGIKITPDTVKEGDYVQAQVTVANQGPEATPVTNIIGWFYVNGYYYTLDDAAKSCAEQDNVTLKPGESITLSTKVKYRAAAPFNFSFVLENLYADDQNQSNNSITVNVPVK
B1 gave a kcat/Km [1] of 2200 ± 300 M⁻¹ s⁻¹, a kcat/Km [2] of 12000 ± 2000 M⁻¹ s⁻¹ and a kcat/Km [3] of 11000 ± 1000 M⁻¹ s⁻¹. For the same protein, the kcat/Km [4] was 28000 ± 8000 M⁻¹ s⁻¹, the kcat/Km [5] was 1800 ± 500 M⁻¹ s⁻¹ and the kcat/Km [6] was 25000 ± 8000 M⁻¹ s⁻¹.
